Experimental data: the DeepSol protein solubility set

experiment: soluble on expression in E. coli; label from the status in PepcDB or PDB records

Sequence	soluble on expression in E. coli
ALRGTVTDFSGFDGEADAEVLEKAMEGLGTDEDSILNLLTARSNAQRQQIAEEFETLFGRDLVNDMKSELTGKFEKLIVALMKPSRLYDAYELKHALKGAGTDEKVLTEIIASRTPEELRAIKQAYEEEYGSNLEDDVVGDTSGYYQRMLVVLLQANRDPDTAIDDAQVELDAQALFQAGELKWGTDEEEFITILGTRSVSHLRRVFDKYMTISGFQIEETIDRETSGNLENLLLAVVKSIRSIPAYLAETLYYAMKGAGTDDHTLIRVIVSRSEIDLFNIRKEFRKNFATSLYSMIKGDTSGDYKKALLLLSGGEDD	soluble
MSLNQIDRLLTIMQRLRDPENGCPWDKEQTFATIAPYTLEETYEVLDAIAREDFDDLRGELGDLLFQVVFYAQMAQEEGRFDFNDICAAISDKLERRHPHVFADSSAENSSEVLARWEQIKTEERAQKAQHSALDDIPRSLPALMRAQKIQKRCANVGFDWTTLGPVVDKVYEEIDEVMYEARQAVVDQAKLEEEMGDLLFATVNLARHLGTKAEIALQKANEKFERRFREVERIVAARGLEMTGVDLETMEEVWQQVKRQEIDLEGGSHHHHHH	soluble
MSLQDIKDITLRQFGTGVSNLNEVAQKVKEDLGFTLTMTALDSDAVTQRAATQPDSFDIADIEYWICKKVWPTGNLQAMDTSKIKNYDKIVGIFRSGKLTPESTIAQGTAPHTVGFTSGPGGTDFVQEESGWMTLIPTIYNADTLGIRPDLIGRPIESWTELLNPEFKGKASILDISSIGIMDAAMVCEAMGEITYGDKGNMTREEIDRTMAIFTEAKKAGQFRAFWKTFDESVNLMASGEVVIQSMWSPAITAVKSRGIPCVYQPLREGYRSWGGGIGLSARLDGLALEAAYEYINWYLSGWVGGFLMRQGYYSAVPETSKEFMSENEWGYWFEGKPATDTITNPQGQAMAQAGEVRDGGSFEERMGRVACWNSVMDENQYMVRKWNEFIAAEGHHHHHH	not soluble
TQDMELNINANITFQQNKLLSLSGMYNGELISAPEYKSLASLDGAGFHGGYNHIVYQVVGQPLGVFYLPRANGLVSDGNGGYTYDIADLNGGGVSLEDGEDRYVAGQAVPKTILGSNLSFRYKRFDISVQINGAFGHKIYNGTSLTYMNMNIFPDYNVMQEAPARNIKDQTATDYWLENGAYVNFDYVTLGWNVPIEKVQKLKKYVRSLRLAFTVNNLATISGYSGLSPMINSSTVNSTLGLDDKRGYPLARTYTLGLSINF	not soluble
MEANMPKRKEPGRSLRIKVISMGNAEVGKSCIIKRYCEKRFVSKYLATIGIDYGVTKVHVRDREIKVNIFDMAGHPFFYEVRNEFYKDTQGVILVYDVGQKDSFDALDAWLAEMKQELGPHGNMENIIFVVCANKIDCTKHRCVDESEGRLWAESKGFLYFETSAQTGEGINEMFQTFYISIVDLCENGGKRPTTNSSASFTKEQADAIRRIRNSKDSWDMLGVKPGASRDEVNKAYRKLAVLLHPDKCVAPGSEDAFKAVVNARTALLKNIK	soluble
KDFLNPKYTLENFIVGEGNRLAYEVVKEALENLGSLYNPIFIYGSVGTGKTHLLQAAGNEAKKRGYRVIYSSADDFAQAMVEHLKKGTINEFRNMYKSVDLLLLDDVQFLSGKERTQIEFFHIFNTLYLLEKQIILASDRHPQKLDGVSDRLVSRFEGGILVEIELDNKTRFKIIKEKLKEFNLELRKEVIDYLLENTKNVREIEGKIKLIKLKGFEGLERKERKERDKLMQIVEFVANYYAVKVEDILSDKRNKRTSEARKIAMYLCRKVCSASLIEIARAFKRKDHTTVIHAIRSVEEEKKKDRKFKHLVGFLEKQAFDKIC	soluble
MSLEDYSVVNRFESHGGGWGYSAHSVEAIRFSADTDILLGGLGLFGGRGEYTAKIKLFELGPDGGDHETDGDLLAETDVLAYDCAAREKYAMMFDEPVLLQAGWWYVAWARVSGPSSDCGSHGQASITTDDGVIFQFKSSKKSNNGTDVNAGQIPQLLYRLPTSDGSTSKGKQQTSEPVHILKRSFARTVSVECFESLLSILHWSWTTLVLGVEELRGLKGFQFTATLLDLERLRFVGTCCLRLLRVYTCEIYPVSATGKAVVEETSKLAECIGKTRTLLRKILSEGVDHCMVKLDNDPQGYLSQPLRLLEAVLQECHNTFTACFHSFYPTPALQWACLCDLLNCLDQEANFKTSSSRLLAAVMSALCHTSVKLTSLFPIAYDGEVLLRSIVKQVSTENDSTLVHRFPLLVGHMEKLSQSEENISGMTSFREVLEKMLVIVVLPVRNSLRRESELFSSHLVSNTCGLLASIVSELTASALGSEVDGLNSLHSVKASANRFTKTSQGRSWNTGNGSPDAICFAVDKPGIVVVGFAVYGGGGIHEYELEVLVDDSEHAGDSTHSHRWTSLELVKGTYTTDDSPSDIAEIRLDKVVPLKENVKYAVRLRNYGSRTANGDGGMTTVQCPDGVTFTFSTCSLSSNGTNQTRGQIPQILYYRSEEGHHHHHH	not soluble
MGSDKIHHHHHHMTVSKTKAKLVDVARQLFAKMGVENTTMNDIALASKKGRRTLYTYFKSKDEIYLAVVESELDILSDMMKRVADKDISPDKKIIEMIYTRLDAVKEVVYRNGTLRANFFRDIWRVEKVRKRFDAKEMQLFKSVLKEGQDKGVFHVDDVEMTAALVHYCVKGIEVPYIRGHIGANLDMETRKRYVANIVFGALHRTEINQ	not soluble
MVEINLRELKKYANPFFLTIRKDKILVNNKRMARLSRTKMDKIEEEFGIPVIYSKTYEYVSTKVGRFINKHKIIAPRDIVIVGLSGGKDSLLLLHLLEVYRRKYGIKLIAVTVDVNIGGIRPWKEDTEGVKLIKHHCEMLNVPHIILKNDLDVVELSEILTKHSKGMEFSPCFSCSVIKRHLLGKLAKEIAENENIPYEKVKLAYGHNLDDNSDTILANIFKGERLKFMRPLTRFKYNEVDYQSFKIPLEECIIIRPMLPILERDIIKALEECGIEYYKDKDMCPYSRDRGDSVRRRCHEILEKLEEEIPNIREMVVSSALKTVEYYSKNPYGEDNL	soluble
MKCRKCGEPSVYHQKHSGNKYCRTCFIKETKRKVRKTLGRDVLKNNIKVAMGLSGGKDSLVMAYLLNEFYKEIPNSKIIAIMVNEGIEGYRLDGIEAAVKFCEKHDIEYKIVQFKDYLGTNLDEIVKLAKEKNLTMNPCSFCGVIRRKILNRVSIEEKCDFLAIGHNLDDIAQAVMMNYIEGDVKKLAFLGKSLKHPKFVKRIKPLEKIPEDEVLLLADMLELTYHKSPCPYSCLSFRSEVSEITDTLEKNHPGTKYSIVRGYERLLEHIELPGYTGECKICGDLSATEVCKVCSYLKNLGILEKSKFEKI	not soluble
MSLVAVRSAHINKAGEFDPEKWIASLGITSQKSCECLAETWAYCLQQTQGHPDASLLLWRGVEMVEILSTLSMDIDTLRAALLFPLADANVVSEDVLRESVGKSVVNLIHGVRDMAAIRQLKATHTDSVSSEQVDNVRRMLLAMVDDFRCVVIKLAERIAHLREVKDAPEDERVLAAKECTNIYAPLANRLGIGQLKWELEDYCFRYLHPTEYKRIAKLLHERRLDREHYIEEFVGHLRAEMKAEGVKAEVYGRPKHIYSIWRKMQKKNLAFDELFDVRAVRIVAERLQDCYAALGIVHTHYRHLPDEKDDYVANPKPNGYQSIHTVVLGPGGKTVEIQIRTKQMHEDAELGVAAHWKYKEGAAAGGARSGHEDRIAWLRKLIAWQEEMADSGEMLDEVRSQVFDDRVYVFTPKGDVVDLPAGSTPLDFAYHIHSDVGHRCIGAKIGGRIVPFTYQLQMGDQIEIITQKQPNPSRDWLNPNLGYVTTSRGRSKIHAWFRKQDRDKNILAGRQILDDELEHLGISLKEAEKHLLPRYNFNDVDELLAAIGGGDIRLNQMVNFLQSQFNKPSAEEQDAAALKQLQQKSYTPQNRSKDNGRVVVEGVGNLMHHIARCCQPIPGDEIVGFITQGRGISVHRADCEQLAELRSHAPERIVDAVWGESYSAGYSLVVRVVANDRSGLLRDITTILANEKVNVLGVASRSDTKQQLATIDMTIEIYNLQVLGRVLGKLNQVPDVIDARRLHGSEGHHHHHH	not soluble
SETPEVPVGSLIDFGPEAPTSSPLEAPPPVLQDGDGSLGDGASESETTESADSENDMGESPSHPSWDQDRRSSSNESFSSNQSTESTQDEETLALRDFMRGYVEKIFSGGEDLDQEEKAKFGEYCSSENGKGREWFARYVSAQRCNSKCVSEATFYRLVQSFAVVLFECHQMDDFGPAKNLMTMCFTYYHIGKPQLLPPESREKPAGSIDSYLKSANSWLAEKKDIAERLLKNTSARTENVKGFFGGLETKLKGPLARRNEEDENKPQEKRPRAVTAYSPEDEKKGEKIYLYTHLKQQPIW	soluble
MGSDKIHHHHHHMKLVEITREEIRGDLVGLVPVGSIEQHGPHLPMGTDGIISEYIASKAEEKLKDITLLFPTIYYGVSLEHKGFPFVSLSFQTAISFFTDLLESVFNDLGLRRIIIVNGHGGNSYFLPLVQREFNMKHSDAKVIVFNTFGEEEKILFNVNDLHAGTIETSKIWAIGKSLVRVNKIDEIKNYEVRDGVFIYYSSREANQFGVLNDGKPIRVNEEYGKKILRDLVDKLIWTILNFKV	not soluble
MSLRWEGALSAGQRKASNAIVVNLKAKTDMLLWAVAGSGKTEMMFEGMDWALRQGFRICVASPRVDVCLELLPRLKEAFPSIDIVCLYGDSKDNYQGEQFVIATTHQLIRFYEAFQVIFIDEVDAFPYAKDPFLEYAVMKARTKEGSTIIITATPEKKWQEECVRGKRNFVKIPGRYHRKKLPVPRTCWIGPWKKNLAKGKITPKLIQWMNDVKKKDQPALIFFPEIDAMNKFANALENKGYASEGHHHHHH	not soluble
LFLPNTRAYRRYNRSVWAVRGSTRPQWQPPPKFQHAKCMSMRLAHRLQILLDDECHRRITAVARERGVPVATVVREAIDRGLVSPAGRRKSAGRRLLDAADMSVPEPRELKQELEALRARRG	not soluble
MSAEGFLAEHAHRRPSSRRRRAAQFGSPLTPGQDETVSDRTTADLERELAMLAYVRDRLRASEGEGFRIPTTAVDQVLDERNSLERSPWDPT	not soluble
SEAKTLGTVTPRKPVLSVSARKIKDNAADWHNLILKWETLNDAGFTTANNIANLKISLLNKDKIELDSSSPASKENEEKVCLEYNEELEKLCEELQATLDGLTKIQVKMEKLSSTTKGICELENYHYGEESKRPPLFHTWPTTHFYEVSHKLLEMYRKELLLKRTVAKELAHTGDPDLTLSYLSMWLHQPYVESDSRLHLESMLLETGHRAL	soluble
MGHHHHHHSHMSNTDASGEKRVTGTSERREQIIQRLRQQGSVQVNDLSALYGVSTVTIRNDLAFLEKQGIAVRAYGGALICDSTTPSVEPSVEDKSALNTAMKRSVAKAAVELIQPGHRVILDSGTTTFEIARLMRKYTDVIAMTNGMNVANALLEAEGVELLMTGGHLRRQSQSFYGDQAEQSLQNYHFDMLFLGVDAIDLERGVSTHNEDEARLSRRMCEVAERIIVVTDSSKFNRSSLHKIIDTQRIDMIIVDEGIPADSLEGLRKAGVEVILVGDHASSL	soluble
MSLTIAHLTSSAFAVNKERNKFLMIHHNIYNSWAWTGGHSDNEKDQLKVAIKELKEETGVKNPTPLLDKAFALDVLTVNGHIKRGKYVSSHLHLNLTYLIECSEDETLMLKEDENSGVMWIPFNEISKYCSEPHMIPIYEKLINKLKTQSKEGHHHHHH	not soluble
GPGSMMMQRSQKMLLDPASFIERPPRNTLFNIVPQGHEYVVERLGRYHRTLDSGWWVVVPFIDKIRYNYNVKEQGIEIPNQSAITSDNVMVEIDGVLFLKIVDSCKASYNIENPVFNLINLAQTTMRSEIGRMSLDSLFRERASLNQSTVEVLRREANEWGIECKRYEIRDIVVSELVRRSMDLQAEAERKKRKLILESEGESTATINRANGMKIAQQCVADAEKYTAERQSEGAAAAIRVKAAAVSDNISIVSDAIEKAK	not soluble
MSHGSPAPSASVSSDGEEPEIDVMPSSDEESEPIYIPKEKEPVVIRGVGNITVFGMNSRFNTEYPPELTGYIAPEELSATLSRVNSVLKRHVQTSSRWLLCGLAFCCCSIGCSMWPVLCLNRRTVLALEKCLDHENVSLYHKLGLHWSLARRPTEPSDRLTEYVLELKTLPKPALNLPD	not soluble
